Measured values reported in paper PMC4041433.
Read-outs that look alike come from different tables or passages of the source.

Assays:
[1] = biological target: Aeropyrum pernix ThermoDBP-related protein 2 (apeThermoDBP-RP2) (Aeropyrum pernix); assay: crystal structure
[2] = biological target: Aeropyrum pernix ThermoDBP-related protein 2 (apeThermoDBP-RP2) (Aeropyrum pernix); assay: crystal structure; remark: listed apart in the source
[3] = biological target: Aeropyrum pernix ThermoDBP-related protein 2 (apeThermoDBP-RP2) (Aeropyrum pernix); assay: SEC
[4] = biological target: Pyrococcus furiosus ThermoDBP-related protein 1 (pfuThermoDBP-RP1) (Pyrococcus furiosus); assay: crystal structure
[5] = biological target: Pyrococcus furiosus ThermoDBP-related protein 1 (pfuThermoDBP-RP1) (Pyrococcus furiosus); assay: SEC
[6] = biological target: T1, apeThermoDBP-RP2 (Aeropyrum pernix, UniProt Q9YAS7 1-234); assay: EMSA
T1 sequence: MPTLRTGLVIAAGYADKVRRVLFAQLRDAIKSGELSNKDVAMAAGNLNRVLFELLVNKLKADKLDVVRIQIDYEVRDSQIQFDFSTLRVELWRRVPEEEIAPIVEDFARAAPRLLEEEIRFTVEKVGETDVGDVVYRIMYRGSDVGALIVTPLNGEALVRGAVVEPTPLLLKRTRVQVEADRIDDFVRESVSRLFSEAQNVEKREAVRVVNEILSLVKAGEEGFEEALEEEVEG

[7] = biological target: T1, apeThermoDBP-RP2; assay: EMSA; remark: listed apart in the source
[8] = biological target: T1, apeThermoDBP-RP2; assay: EMSA; remark: listed apart in the source
[9] = biological target: T1, apeThermoDBP-RP2; assay: EMSA; remark: listed apart in the source

Aeropyrum pernix ThermoDBP-related protein 2 (apeThermoDBP-RP2) (natural protein)
stoichiometry N [1]: 4 | stoichiometry N [2]: 4 | stoichiometry N [3]: 4

Pyrococcus furiosus ThermoDBP-related protein 1 (pfuThermoDBP-RP1) (natural protein)
stoichiometry N [4]: 4 | stoichiometry N [5]: 4

B1: dT25 (ssDNA)
DNA: TTTTTTTTTTTTTTTTTTTTTTTTT
binding result [6]: binds

B2: dT15 (ssDNA)
DNA: TTTTTTTTTTTTTTT
binding result [6]: binds

B3: dT35 (ssDNA)
DNA: TTTTTTTTTTTTTTTTTTTTTTTTTTTTTTTTTTT
binding result [7]: binds

B4: 45-mer ssDNA (ssDNA)
DNA: CTTGCTAGGACGGATCCCTCGAGGTTTTTTTTTTTTTTTTTTTT
binding result [8]: binds

B5: dT20 (ssDNA)
DNA: TTTTTTTTTTTTTTTTTTTT
binding result [6]: binds

B6: dT30 (ssDNA)
DNA: TTTTTTTTTTTTTTTTTTTTTTTTTTTTTT
binding result [9]: binds
